Where two headings read alike, the source gives them in different places.
B1: PCARE-Dual peptide (designed binder)
peptide: MAGGLNDIFEAQKIEWHEDTGGSSHHHHHHGSGSGSDSEVNQEAKPEVKPEVKPETHINLKVSDGSSEIFFKIKKTTPLRRLMEAFAKRQGKEMDSLTFLYDGIEIQADQTPEDLDMEDNDIIEAHREQIGGSGSGNLEHLPPPPMEVLMDKSFASLESGSGSPPPPPF
modifications: biotinylated (BAP tag)
notes: Engineered peptide, tested as a SUMO fusion in BLI
B2: LPP 36mer peptide (peptide)
peptide: MAGGLNDIFEAQKIEWHEDTGGSSHHHHHHGSGSGSDSEVNQEAKPEVKPEVKPETHINLKVSDGSSEIFFKIKKTTPLRRLMEAFAKRQGKEMDSLTFLYDGIEIQADQTPEDLDMEDNDIIEAHREQIGGSGSGKQPGGEGDFLPPPPPPLDDSSALPSISGNFPPPPPL
modifications: biotinylated (BAP tag)
notes: Tested as a BAP-6xHis-SUMO-peptide fusion in BLI and ITC
B3: ABI1 36mer peptide (peptide)
peptide: MAGGLNDIFEAQKIEWHEDTGGSSHHHHHHGSGSGSDSEVNQEAKPEVKPEVKPETHINLKVSDGSSEIFFKIKKTTPLRRLMEAFAKRQGKEMDSLTFLYDGIEIQADQTPEDLDMEDNDIIEAHREQIGGSGSGFDDFPPPPPPPPVDYEDEEAAVVQYNDPYADGDPAW
modifications: biotinylated (BAP tag)
B4: ABI1-LPP fusion peptide (designed binder)
peptide: MAGGLNDIFEAQKIEWHEDTGGSSHHHHHHGSGSGSDSEVNQEAKPEVKPEVKPETHINLKVSDGSSEIFFKIKKTTPLRRLMEAFAKRQGKEMDSLTFLYDGIEIQADQTPEDLDMEDNDIIEAHREQIGGSGSGFDDFPPPPPPPPVDYEDLPSISGNFPPPPPL
modifications: biotinylated (BAP tag)
notes: as for B1
B5: SUMO-ActA (ActA 36-mer peptide fused to SUMO) (peptide)
peptide: MAGGLNDIFEAQKIEWHEDTGGSSHHHHHHGSGSGSDSEVNQEAKPEVKPEVKPETHINLKVSDGSSEIFFKIKKTTPLRRLMEAFAKRQGKEMDSLTFLYDGIEIQADQTPEDLDMEDNDIIEAHREQIGGGFNAPATSEPSSFEFPPPPTEDELEIIRETASSLDS
modifications: biotinylated (BAP tag)
notes: Control peptide used in BLI and ITC; also called ActA peptide
B6: PCARE B (PCARE826-848) (peptide)
peptide: MAGGLNDIFEAQKIEWHEDTGGSSHHHHHHGSGSGSDSEVNQEAKPEVKPEVKPETHINLKVSDGSSEIFFKIKKTTPLRRLMEAFAKRQGKEMDSLTFLYDGIEIQADQTPEDLDMEDNDIIEAHREQIGGSGSGNLEHLPPPPMEVLMDKSFASLES
modifications: biotinylated (BAP tag)
B7: NHSL1 36mer peptide (peptide)
peptide: MAGGLNDIFEAQKIEWHEDTGGSSHHHHHHGSGSGSDSEVNQEAKPEVKPEVKPETHINLKVSDGSSEIFFKIKKTTPLRRLMEAFAKRQGKEMDSLTFLYDGIEIQADQTPEDLDMEDNDIIEAHREQIGGSGSGADRSPFLPPPPPVTDCSQGSPLPHSPVFPPPPPEAL
modifications: biotinylated (BAP tag)
notes: as for B2
B8: TENM1 36-mer peptide (peptide)
peptide: MAGGLNDIFEAQKIEWHEDTGGSSHHHHHHGSGSGSDSEVNQEAKPEVKPEVKPETHINLKVSDGSSEIFFKIKKTTPLRRLMEAFAKRQGKEMDSLTFLYDGIEIQADQTPEDLDMEDNDIIEAHREQIGGSGSGGSTQDVQSSPHNQFTFRPLPPPPPPPHACTCARKPP
modifications: biotinylated (BAP tag)
notes: Tested as a biotinylated BAP-6xHis-SUMO-peptide fusion; The text calls it TEN1; it contains both an FP4 and a CXC motif; also called TEN1

What was measured:
[1] = target: T1, ENAH EVH1 domain (monomeric, wild type) (human, UniProt Q03173 1-111 (mouse entry)); assay: BLI
T1 construct: ENAH residue numbers in the text count from the Met at position 25 of this entry; also called ENAH EVH1 WT; Mena EVH1 WT
Protocol: (§1) All BLI experiments were performed with 2 replicates on an Octet Red96 instrument (ForteBio). […] The loaded tips were immersed in a solution of ENAH EVH1 domain at a relevant dilution series in BLI buffer at an orbital shake speed of 1000 rpm and run until the binding signal plateaued. ENAH-bound tips were subsequently placed into BLI buffer only for dissociation and run until the binding signal plateaued. K_D values were obtained through steady state analysis. […] The association phases were then fit to a one-phase binding model in Prism and the equilibrium steady-state binding signal values from that fit were plotted against ENAH concentration and fit to a single-site specific binding model in Prism to obtain dissociation constants. Errors reported are the standard deviation of two replicates.

[2] = target: T1, ENAH EVH1 domain (monomeric, wild type); assay: BLI dissociation curves
Protocol: (§2) (C) Peptide binding and dissociation curves measured by BLI. Blue, orange, green, red, purple, and brown curves denote EVH1 concentrations in descending order.
as §1

[3] = target: T1, ENAH EVH1 domain (monomeric, wild type); assay: BLI steady state, immobilised SUMO-PCARE-Dual, EVH1 domain in solution
Protocol: as §2, §1

VASP EVH1 domain [4] = target: T2, VASP EVH1 domain (Homo sapiens (Human), UniProt P50552 1-114); assay: as above
T2 construct: VASP numbering in the text counts from the Met at position 25 of the entry
Protocol: as §2, §1

[5] = target: T3, EVL EVH1 domain (wild type) (Mus musculus (Mouse), UniProt P70429 1-116); assay: as above
T3 construct: EVL numbering counts from the Met at position 25 of the entry; also called WT EVL EVH1 domain
Protocol: as §2, §1

[6] = target: T1, ENAH EVH1 domain (monomeric, wild type); assay: BLI steady state, immobilised SUMO-peptide, ENAH EVH1 domain in solution
Protocol: as §2, §1

[7] = target: T1, ENAH EVH1 domain (monomeric, wild type); assay: BLI dissociation phase, immobilised SUMO-peptide, ENAH EVH1 domain in solution
[8] = target: T1, ENAH EVH1 domain (monomeric, wild type); assay: ITC
Protocol: (§3) ITC experiments were performed with two replicates using a VP-ITC microcalorimeter (MicroCal LLC). To prepare samples for ITC, 2.5 mL of 100 µM ENAH EVH1 domain and 1 mL of 800 µM-1.2 mM of SUMO-peptide fusions were dialyzed against 2 µL of ITC Buffer (20 mM Hepes pH 7.6, 150 mM NaCl, 1 mM TCEP) at 4° C. overnight. The concentrations of proteins were remeasured after dialysis on the day of experiment. SUMO-peptide was titrated into ENAH EVH1 domain at 25° C. Data analysis and curve fitting were performed with the Origin 7.0 software (OriginLab).

[9] = target: T1, ENAH EVH1 domain (monomeric, wild type); assay: ITC, SUMO-peptide titrated into ENAH EVH1 domain at 25 °C
Protocol: as §3

[10] = target: T1, ENAH EVH1 domain (monomeric, wild type); assay: BLI, steady state; SUMO-peptide immobilised, EVH1 monomer in solution
Protocol: as §1

[11] = target: T4, ENAH EVH1 domain with Arg47 mutated to Ala (human, UniProt Q03173 1-111 (mouse entry)); assay: as above
T4 construct: also called ENAH R47A; ENAH EVH1 R47A
Protocol: as §1

[12] = target: T1, ENAH EVH1 domain (monomeric, wild type); assay: as above; remark: listed apart in the source
Protocol: as §1

[13] = target: T1, ENAH EVH1 domain (monomeric, wild type); assay: as above; remark: listed apart in the source
Protocol: as §1

[14] = target: T4, ENAH EVH1 domain with Arg47 mutated to …; assay: as above; remark: listed apart in the source
Protocol: as §1

[15] = target: T1, ENAH EVH1 domain (monomeric, wild type); assay: as above; remark: listed apart in the source
Protocol: as §1

[16] = target: T1, ENAH EVH1 domain (monomeric, wild type); assay: BLI, steady state; SUMO-peptide immobilised, EVH1 monomer in solution; Table 2 (MassTitr hit validation), not the Table 3 truncation series
Protocol: as §1

[17] = target: T5, EVL EVH1 swapped (residue swapped) (Homo sapiens (Human), UniProt Q9UI08 1-109); assay: BLI, EVL swapped EVH1 domain in solution
T5 construct: also called EVL swapped; residue-swapped EVL EVH1 domain

VASP EVH1 domain [18] = target: T2, VASP EVH1 domain; assay: BLI steady state, immobilised SUMO-PCARE B, EVH1 domain in solution
[19] = target: T3, EVL EVH1 domain (wild type); assay: as above
[20] = target: T3, EVL EVH1 domain (wild type); assay: as above; remark: listed apart in the source
[21] = target: T1, ENAH EVH1 domain (monomeric, wild type); assay: BLI, monomeric EVH1

T1 sequence (Q03173 other isoform, or with tags, fused parts or gaps limits assumed): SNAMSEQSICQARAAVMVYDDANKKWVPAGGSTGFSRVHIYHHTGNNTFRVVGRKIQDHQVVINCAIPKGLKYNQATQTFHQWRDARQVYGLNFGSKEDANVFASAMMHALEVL
T3 sequence (P70429 other isoform, or with tags, fused parts or gaps limits assumed): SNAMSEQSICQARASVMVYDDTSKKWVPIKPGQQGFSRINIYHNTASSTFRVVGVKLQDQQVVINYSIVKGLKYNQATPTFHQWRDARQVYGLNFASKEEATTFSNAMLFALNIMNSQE
T4 sequence (Q03173 other isoform, or with tags, fused parts or gaps limits assumed, stated change not applied): as the sequence (Q03173 other isoform, or with tags, fused parts or gaps limits assumed) above, with R50A counted along it
T2 sequence (P50552 other isoform, or with tags, fused parts or gaps limits assumed): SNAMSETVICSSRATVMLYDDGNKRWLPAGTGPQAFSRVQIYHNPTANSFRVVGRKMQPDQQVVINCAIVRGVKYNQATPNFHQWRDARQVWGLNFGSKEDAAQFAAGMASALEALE
T5 sequence (Q9UI08 other isoform, or with tags, fused parts or gaps limits assumed): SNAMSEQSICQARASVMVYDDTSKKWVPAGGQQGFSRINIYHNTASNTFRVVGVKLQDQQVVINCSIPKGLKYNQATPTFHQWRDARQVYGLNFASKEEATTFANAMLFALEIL

Row | Binder | koff [7] | -TΔS [8] | ΔG [8] | ΔH [8] | Kd [9] | Kd [12] | Kd [13] | Kd [14] | also measured
1 | B1 | 0.045 s⁻¹ |  |  |  |  |  |  |  | Kd [1]: 0.05 µM; fold tighter binding than PCARE B [1]: ~7 fold; fold slower dissociation than dual-motif peptide LPP [2]: ~100 fold; Kd [3]: 0.048 µM; Kd (VASP EVH1 domain [4]): 28 µM; Kd [5]: 21 µM; Kd [6]: 0.048 µM
2 | B2 | 1.8 s⁻¹ | -0.504 kcal/mol | -6.94 kcal/mol | -6.44 kcal/mol | 8.13 µM | 4.03 µM | 4.03 µM | 61.9 µM | Kd [10]: 4.03 µM; Kd [11]: 61.9 µM
3 | B3 |  |  |  |  |  |  |  |  | Kd [15]: 4.01 µM; Kd [16]: 2.44 µM
4 | B4 | 0.33 s⁻¹ |  |  |  |  |  |  |  | Kd [1]: 0.76 µM
5 | B5 |  | -5.21 kcal/mol | -6.99 kcal/mol | -1.78 kcal/mol | 7.41 µM | 5.21 µM | 5.21 µM | 8.02 µM | 
6 | B6 |  |  |  |  |  |  |  |  | Kd [17]: 0.35 µM; Kd (VASP EVH1 domain [18]): 42 µM; Kd [19]: 22 µM; Kd [20]: 22 µM
7 | B7 |  | -0.28 kcal/mol | -6.83 kcal/mol | -6.55 kcal/mol | 9.8 µM | 8.56 µM | 8.56 µM | 55.4 µM | Kd [10]: 8.56 µM; Kd [11]: 55.4 µM
8 | B8 |  |  |  |  |  | 62.9 µM |  |  | Kd [21]: > 60 µM

Reference: US12552834 (MIT, dated 2026)
